Measurements reported in paper PMC6210165, “Structure-Based Engineering of Phanerochaete chrysosporium Alcohol Oxidase for Enhanced Oxidative Power toward Glycerol” (Biochemistry, 2018).
Substitutions are numbered along the chain they refer to. Names and notes keep the numbering of the source.

B1: PcAOX (His-SUMO-PcAOX) (Phanerodontia chrysosporium) (protein)
chain: MGHPEEVDVIVCGGGPAGCVVAGRLAYADPTLKVMLIEGGANNRDDPWVYRPGIYVRNMQRNGINDKATFYTDTMASSYLRGRRSIVPCANILGGGSSINFQMYTRASASDWDDFKTEGWTCKDLLPLMKRLENYQKPCNNDTHGYDGPIAISNGGQIMPVAQDFLRAAHAIGVPYSDDIQDLTTAHGAEIWAKYINRHTGRRSDAATAYVHSVMDVQDNLFLRCNARVSRVLFDDNNKAVGVAYVPSRNRTHGGKLHETIVKARKMVVLSSGTLGTPQILERSGVGNGELLRQLGIKIVSDLPGVGEQYQDHYTTLSIYRVSNESITTDDFLRGVKDVQRELFTEWEVSPEKARLSSNAIDAGFKIRPTEEELKEMGPEFNELWNRYFKDKPDKPVMFGSIVAGAYADHTLLPPGKYITMFQYLEYPASRGKIHIKSQNPYVEPFFDSGFMNNKADFAPIRWSYKKTREVARRMDAFRGELTSHHPRFHPASPAACKDIDIETAKQIYPDGLTVGIHMGSWHQPSEPYKHDKVIEDIPYTEEDDKAIDDWVADHVETTWHSLGTCAMKPREQGGVVDKRLNVYGTQNLKCVDLSICPDNLGTNTYSSALLVGEKGADLIAEELGLKIKTPHAPVPHAPVPTGRPATQQVR
notes: codon-optimized, E. coli BL21(DE3); N-terminal His-SUMO fusion kept for all kinetics, tag cleaved for crystals; homo-octamer with FAD; residues 2-645 seen in structure
B2: PcAOX (His-SUMO-PcAOX) (Phanerodontia chrysosporium; F101S) (protein)
chain: B1 chain with F101S
notes: as for B1
B3: PcAOX (His-SUMO-PcAOX) (Phanerodontia chrysosporium; F101N) (protein)
chain: B1 chain with F101N
notes: as for B1

Substrate: CCO
Experiment: purified protein
Conditions: 50 mM potassium phosphate pH 7.5, 25 °C, co-substrate O2, fit errors ≤11%

Protein | Km [mM] | kcat [s⁻¹] | kcat/Km [M⁻¹ s⁻¹]
B1 | 15 | 19 | 1300
B2 | 1 | 5 | 5000
B3 | 11 | 10 | 910

Substrate: CCCO
Experiment: HRP-coupled H2O2 assay, steady-state kinetics
Assay type: biochemical, Phanerodontia chrysosporium
Conditions: 50 mM potassium phosphate pH 7.5, 25 °C, co-substrate O2, fit errors ≤11%
Text: (§1) HRP-coupled H2O2 assay, steady-state kinetics on PcAOX (His-SUMO-PcAOX)

Protein | Km [mM] | kcat [s⁻¹] | kcat/Km [M⁻¹ s⁻¹]
B1 | 45 | 11 | 240
B2 | 4 | 7 | 1800
B3 | 11 | 12 | 1100

Substrate: CO
Experiment: HRP-coupled H2O2 assay, steady-state kinetics
Assay type: biochemical, Phanerodontia chrysosporium
Conditions: 50 mM potassium phosphate pH 7.5, 25 °C, co-substrate O2, fit errors ≤11%
Text: as §1

Protein | Km [mM] | kcat [s⁻¹] | kcat/Km [M⁻¹ s⁻¹]
B1 | 2 | 18 | 9000
B2 | 2 | 18 | 9000
B3 | 14 | 10 | 710
